Among the data in patent publication US20240209399A1 are level of transcriptional activation (mCherry MFI relative to the non-targeting control, HEK293T reporter assay) values, retold here.

The target in the assay is TnsC-BP-NLS-VP64 (plasmid pSL2783, p6A_hCO_Vch_TnsC_BP-NLS-VP64) (Vibrio cholerae). Description: cell-based or functional assay.

On to “TnsABf (plasmid pSL2669, pcDNA3.1_hCO_Vch_TnsA_BP-NLS_TnsB)”, for which the level of transcriptional activation (mCherry MFI relative to the non-targeting control, HEK293T reporter assay) was found to be 2 fold.
